Molecular target: His×6-Okp1 (budding yeast, UniProt P53298 1-406)
Assay: pull-down

Chain of His×6-Okp1 (P53298 whole entry): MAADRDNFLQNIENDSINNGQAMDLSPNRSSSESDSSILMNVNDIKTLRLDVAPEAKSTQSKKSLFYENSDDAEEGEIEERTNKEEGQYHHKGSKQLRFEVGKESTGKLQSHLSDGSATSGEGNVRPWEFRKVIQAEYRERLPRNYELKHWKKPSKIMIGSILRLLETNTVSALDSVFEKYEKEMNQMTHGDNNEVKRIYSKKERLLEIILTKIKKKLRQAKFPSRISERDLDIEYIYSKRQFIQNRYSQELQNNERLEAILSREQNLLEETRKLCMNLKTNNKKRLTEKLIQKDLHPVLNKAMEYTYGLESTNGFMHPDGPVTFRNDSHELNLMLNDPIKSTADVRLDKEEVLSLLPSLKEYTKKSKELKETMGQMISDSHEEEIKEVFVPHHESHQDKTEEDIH

binding result: binds
B1: GST-Sli15 (1-401) (domain or fragment)
chain: MDWAIKAARKKTQRKPGSTRSIIETLDDLNNLTTDAHSEINQRLYESSEWLRNNVYMNTLKYEDKKMEESLISPENTHNKMDVEFPKMKGEYELSNSQNDAAKDVTKTPRNGLHNDKSITPKSLRRKEVTEGMNRFSIHDTNKSPVEPLNSVKVDANESEKSSPWSPYKVEKVLRESSKTSESPINTKRFDNQTWAAKEEMENEPILQALKKAESVKVKPPPNSGIARSQRRSNMFVPLPNKDPLIIQHIPPTKSSGSIPKVRTVKESPIAFKKKSTINSPAIRAVENSDTAGSTKASSVFDRLSSIPTKSFENKISRGNVGHKYSSSSIDLTGSPMKKVSQKFKSINSTDTDMQEALRDIFSVKNKITKNNSPKGKNSRKSSIPRFDKTSLKLTTHKKLA

Reference: publication doi:10.1101/515924 (bioRxiv, 2019)
